Experimental data taken from paper PMC3636079, “Determinants at the N- and C-termini of Gα12 required for activation of Rho-mediated signaling” (Journal of Molecular Signaling, 2013).

B1: myc-tagged Gα12 Gln^229Leu (myc-Gα12^QL) [not stated] / GST fusion of protein phosphatase-5 [not stated] (parent)
chain 1: MSGVVRTLSRCLLPAEAGARERRAGAARDAEREARRRSRDIDALLARERRAVRRLVKILLLGAGESGKSTFLKQMRIIHGREFDQKALLEFRDTIFDNILKGSRVLVDARDKLGIPWQHSENEKHGMFLMAFENKAGLPVEPATFQLYVPALSALWRDSGIREAFSRRSEFQLGESVKYFLDNLDRIGQLNYFPSKQDILLARKATKGIVEHDFVIKKIPFKMVDVGGLRSQRQKWFQCFDGITSILFMVSSSEYDQVLMEDRRTNRLVESMNIFETIVNNKLFFNVSIILFLNKMDLLVEKVKSVSIKKHFPDFKGDPHRLEDVQRYLVQCFDRKRRNRSKPLFHHFTTAIDTENIRFVFHAVKDTILQENLKDIMLQ
chain 2: MAMAEGERTECAEPPRDEPPADGALKRAEELKTQANDYFKAKDYENAIKFYSQAIELNPSNAIYYGNRSLAYLRTECYGYALGDATRAIELDKKYIKGYYRRAASNMALGKFRAALRDYETVVKVKPHDKDAKMKYQECNKIVKQKAFERAIAGDEHKRSVVDSLDIESMTIEDEYSGPKLEDGKVTISFMKELMQWYKDQKKLHRKCAYQILVQVKEVLSKLSTLVETTLKETEKITVCGDTHGQFYDLLNIFELNGLPSETNPYIFNGDFVDRGSFSVEVILTLFGFKLLYPDHFHLLRGNHETDNMNQIYGFEGEVKAKYTAQMYELFSEVFEWLPLAQCINGKVLIMHGGLFSEDGVTLDDIRKIERNRQPPDSGPMCDLLWSDPQPQNGRSISKRGVSCQFGPDVTKAFLEENNLDYIIRSHEVKAEGYEVAHGGRCVTVFSAPNYCDQMGNKASYIHLQGSDLRPQFHQFTAVPHPNVKPMAYANTLLQLGMM

Variants of: B1
Assay: GST pull-down (co-precipitation), immunoblot pulldown:load ratio
Details: with GST fusion of protein phosphatase-5; grade: ++; mean of two or more trials; parent: 100

Percent of parent (% of myc-Gα12QL pulldown:load ratio), > 60:
chain 1 MSGVVRTLSRCLLPAEAGARERRAGAARDAEREARRRSRDIDALLARERRAVRRLVKILLLGAGESGKSTFLKQMRIIHGREFDQKALLEFRDTIFDNILKGSRVLVDARDKLGIPWQHSENEKHGMFLMAFENKAGLPVEPATFQLYVPALSALWRDSGIREAFSRRSEFQLGESVKYFLDNLDRIGQLNYFPSKQDILLARKATKGIVEHDFVIKKIPFKMVDVGGLRSQRQKWFQCFDGITSILFMVSSSEYDQVLMEDRRTNRLVESMNIFETIVNNKLFFNVSIILFLNKMDLLVEKVKSVSIKKHFPDFKGDPHRLEDVQRYLVQCFDRKRRNRSKPLFNAAIRSIDTENIRFVFHAVKDTILQENLKDIMLQ [chain 1 H346N H347A F348A T349I T350R A351S]
chain 1 MSGVVRTLSRCLLPAEAGARERRAGAARDAEREARRRSRDIDALLARERRAVRRLVKILLLGAGESGKSTFLKQMRIIHGREFDQKALLEFRDTIFDNILKGSRVLVDARDKLGIPWQHSENEKHGMFLMAFENKAGLPVEPATFQLYVPALSALWRDSGIREAFSRRSEFQLGESVKYFLDNLDRIGQLNYFPSKQDILLARKATKGIVEHDFVIKKIPFKMVDVGGLRSQRQKWFQCFDGITSILFMVSSSEYDQVLMEDRRTNRLVESMNIFETIVNNKLFFNVSIILFLNKMDLLVEKVKSVSIKKHFPDFKGDPHRLEDVQRYLVQCFDRKRRNRSKPLFHHFTTANAAIRSRFVFHAVKDTILQENLKDIMLQ [chain 1 I352N D353A T354A E355I N356R I357S]
chain 1 MSGVVRTLSRCLLPAEAGARERRAGAARDAEREARRRSRDIDALLARERRAVRRLVKILLLGAGESGKSTFLKQMRIIHGREFDQKALLEFRDTIFDNILKGSRVLVDARDKLGIPWQHSENEKHGMFLMAFENKAGLPVEPATFQLYVPALSALWRDSGIREAFSRRSEFQLGESVKYFLDNLDRIGQLNYFPSKQDILLARKATKGIVEHDFVIKKIPFKMVDVGGLRSQRQKWFQCFDGITSILFMVSSSEYDQVLMEDRRTNRLVESMNIFETIVNNKLFFNVSIILFLNKMDLLVEKVKSVSIKKHFPDFNAAIRSLEDVQRYLVQCFDRKRRNRSKPLFHHFTTAIDTENIRFVFHAVKDTILQENLKDIMLQ [chain 1 K316N G317A D318A P319I H320R R321S]
chain 1 MSGVVRTLSRCLLPAEAGARERRAGAANAAIRSARRRSRDIDALLARERRAVRRLVKILLLGAGESGKSTFLKQMRIIHGREFDQKALLEFRDTIFDNILKGSRVLVDARDKLGIPWQHSENEKHGMFLMAFENKAGLPVEPATFQLYVPALSALWRDSGIREAFSRRSEFQLGESVKYFLDNLDRIGQLNYFPSKQDILLARKATKGIVEHDFVIKKIPFKMVDVGGLRSQRQKWFQCFDGITSILFMVSSSEYDQVLMEDRRTNRLVESMNIFETIVNNKLFFNVSIILFLNKMDLLVEKVKSVSIKKHFPDFKGDPHRLEDVQRYLVQCFDRKRRNRSKPLFHHFTTAIDTENIRFVFHAVKDTILQENLKDIMLQ [chain 1 R28N D29A E31I E33S]
chain 1 MSGVVRTLSRCLLPAEAGARERRAGAARDAEREARRRSRDIDALLARERRAVRRLVKILLLGAGESGKSTFLKQMRIIHGREFDQKALLEFRDTIFDNILKGSRVLVDARDKLGIPWQHSENEKHGMFLMAFENKAGLPVEPATFQLYVPALSALWRDSGIREAFSRRSEFQLGESVKYFLDNLDRIGQLNYFPSKQDILLARKATKGIVEHDFVIKKIPFKMVDVGGLRSQRQKWFQCFDGITSILFMVSSSEYDQVLMEDRRTNRLVESMNIFETIVNNKLFFNVSIILFLNKMDLLVEKVKSVSIKKHFPDFKGDPHRLEDVQRYLVQCFDRKRRNNAAIRSHHFTTAIDTENIRFVFHAVKDTILQENLKDIMLQ [chain 1 R340N S341A K342A P343I L344R F345S]
chain 1 MSGVVRTLSRCLLPAEAGARERRAGAARDAEREARRRSRDIDALLARERRAVRRLVKILLLGAGESGKSTFLKQMRIIHGREFDQKALLEFRDTIFDNILKGSRVLVDARDKLGIPWQHSENEKHGMFLMAFENKAGLPVEPATFQLYVPALSALWRDSGIREAFSRRSEFQLGESVKYFLDNLDRIGQLNYFPSKQDILLARKATKGIVEHDFVIKKIPFKMVDVGGLRSQRQKWFQCFDGITSILFMVSSSEYDQVLMEDRRTNRLVESMNIFETIVNNKLFFNVSIILFLNKMDLLVEKVKSVSIKKHFPDFKGDPHRLEDVQRYLVQCFDRKRRNRSKPLFHHFTTAIDTENINAAIRSVKDTILQENLKDIMLQ [chain 1 R358N F359A V360A F361I H362R A363S]
chain 1 MSGVVRTLSRCLLPAEAGARERRAGAARDAEREARRRSRDIDALLARERRANAAIRSILLLGAGESGKSTFLKQMRIIHGREFDQKALLEFRDTIFDNILKGSRVLVDARDKLGIPWQHSENEKHGMFLMAFENKAGLPVEPATFQLYVPALSALWRDSGIREAFSRRSEFQLGESVKYFLDNLDRIGQLNYFPSKQDILLARKATKGIVEHDFVIKKIPFKMVDVGGLRSQRQKWFQCFDGITSILFMVSSSEYDQVLMEDRRTNRLVESMNIFETIVNNKLFFNVSIILFLNKMDLLVEKVKSVSIKKHFPDFKGDPHRLEDVQRYLVQCFDRKRRNRSKPLFHHFTTAIDTENIRFVFHAVKDTILQENLKDIMLQ [chain 1 V52N R53A R54A L55I V56R K57S]
